Test results: doi:10.1101/2021.01.13.426390

B1: His6-AGR2, purified recombinant, O95994 21-175 (natural protein)
chain: RDTTVKPGAKKDTKDSRPKLPQTLSRGWGDQLIWTQTYEEALYKSKTSNKPLMIIHHLDECPHSQALKKVFAENKEIQKLAEQFVLLNLVYETTDKHLSPDGQYVPRIMFVDPSLTVRADITGRYSNRLYAYEPADTALLLDNMKKALKLLKTEL
B2: wild type AGR2, enforced expression, O95994 21-175 (natural protein)
chain: B1 chain

Key:
[1] = biological target: T1, His6-AGR2, purified recombinant, O95994; assay: non-reducing SDS-PAGE and immunoblot of disulfide-bonded complexes; conditions: remark: other sources report otherwise
T1 chain: B1 chain

[2] = biological target: T2, wild type AGR2, enforced expression, O95994; assay: as above; conditions: remark: other sources report otherwise
T2 chain: B1 chain

Binder	stoichiometry N [1]	stoichiometry N [2]
B1	2	
B2		2
